Laboratory results published in publication PMC11253605.

Molecular target: T1, IFIT2 (GST-Ifit2, wild type) (Mus musculus, UniProt Q64112 1-472)
T1 sequence: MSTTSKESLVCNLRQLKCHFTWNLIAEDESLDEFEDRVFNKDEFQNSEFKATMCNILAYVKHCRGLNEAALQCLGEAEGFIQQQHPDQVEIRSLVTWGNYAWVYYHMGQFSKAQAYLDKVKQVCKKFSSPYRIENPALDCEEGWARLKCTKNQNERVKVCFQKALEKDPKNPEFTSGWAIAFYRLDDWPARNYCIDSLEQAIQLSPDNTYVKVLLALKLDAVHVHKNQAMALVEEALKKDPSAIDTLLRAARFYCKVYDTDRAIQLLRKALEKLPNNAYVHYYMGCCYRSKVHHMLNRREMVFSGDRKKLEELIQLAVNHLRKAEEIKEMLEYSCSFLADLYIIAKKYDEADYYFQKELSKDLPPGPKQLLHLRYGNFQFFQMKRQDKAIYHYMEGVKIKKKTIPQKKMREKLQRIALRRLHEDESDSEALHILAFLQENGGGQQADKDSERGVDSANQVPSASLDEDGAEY
Experiment: EMSA; 250 nM protein; at least two complexes; EMSA: 10 fmol labeled RNA in 10 uL, 250 nM protein, 50 mM Tris pH 8, 90 mM NaCl, 1 mM MgCl2, 9% glycerol, 0.05% Triton X-100, 30 min on ice; 6% native PAGE at 4 C
Settings: protein: recombinant; tags: N-terminal GST (pGEX-6P-3); chain copies: 2; label: 5'-32P (T4 PNK); single strand

Binder: AUUAAUUUAUAAUUUAAAUUAUUUUCUACUUU (ssRNA) [32-nt AU-rich ssRNA]
- binding result: binds
